B1: Tudor domain-containing protein 3, residues 554 to 611; numbered along this chain, Q9H7E2 (parent)
chain: KMWKPGDECFALYWEDNKFYRAEVEALHSSGMTAVVKFIDYGNYEEVLLSNIKPIQTE

Variants of: B1
Test: abundance fitness (aPCA) (normalised: wild type 0, dead -1); higher = more abundant; growth selection in yeast, the domain comes from the species named
Settings: Homo sapiens

Abundance fitness: each site, then its substitutions
L27: F -0.716, Y -0.911, A -0.651, R -0.872, V -0.064, N -0.879, P -0.973, W -0.76, Q -1.13, M -0.181, S -0.749, C -0.183, E -0.913, T -0.301, H -0.675, I -0.072, G -0.974, D -0.871
E23: N 0.059, Q -0.103, M -0.005, F -0.1, T -0.004, H 0.071, W -0.176, S 0.013, C -0.034, G -0.596, P -0.838, L -0.225, R 0.032, A -0.257, I 0.143
S29: F -0.186, C -0.116, N -0.062, E -0.008, T -0.012, K -0.028, W -0.368, R -0.133, I -0.05, M -0.009, L -0.125, A 0.114, Q -0.11, Y -0.061, D 0.014, H -0.05, V 0.118, G -0.107, P -0.03
Y41: G 0.07, F 0.162, C -0.019, V -0.025, E 0.042, I 0.076, R 0.108, S 0.118, H 0.028, M -0.086, A 0.134, D 0.055, T 0.132, P -0.446, K 0.103, Q 0.105, L -0.045, N 0.035, W -0.029
I39: K 0.044, D -0.469, L -0.05, R -0.097, W -0.361, S -0.111, Q -0.082, C -0.081, P -0.278, M -0.093, A -0.036, T -0.034, F -0.083, G -0.361, N -0.255, Y -0.006
S30: M -0.282, T -0.119, Y -0.463, G -0.132, A -0.192, I -0.322, E -0.143, C -0.109, D -0.179, F -0.435, L -0.37, W -0.462, N -0.04, K -0.172, P -0.331, V -0.501, Q -0.254
V36: H -0.838, W -0.833, N -1.11, L -0.571, S -0.913, C -0.584, I -0.295, F -0.964, G -0.833, D -0.996, Q -0.73, K -0.843, A -0.92, R -0.88, T -0.777
G42: H -0.395, P -0.11, E 0.005, D 0.059, M -0.319, A -0.305, K -0.407, L -0.492, C -0.315
E25: N -0.111, W -0.101, S 0.022, D 0.027, C -0.019, P -0.659, A 0.062, Q 0.077, V 0.013, Y 0.046, I 0.011, L -0.038, G -0.315, H -0.039, R -0.019, K 0.051, F -0.041, M -0.025
K37: L -0.719, S -0.616, A -0.996, M -0.741, C -0.612, P -0.948, H -0.32, Y -0.098, W -0.635, D -0.74, I -0.968, N -0.567, E -0.757, G -0.833, R -0.064, F -0.218, T -0.923, Q -0.359
V24: Q -0.986, A -0.939, W -0.811, L -0.215, E -1.04, I -0.027, N -0.825, F -0.22, C -0.949, M -0.726, D -1.03, P -0.906, H -0.847, G -0.994, R -0.773, Y -0.814, K -0.849, T -0.863, S -0.751
A22: R -0.756, T -0.865, W -0.95, S -0.637, V -0.845, Y -0.844
M32: G -0.031, L -0.045, Y 0.195, R -0.009, Q 0.046, H 0.086, N 0.003, F -0.005, I -0.24, T 0.046, E 0.009, P -0.266, C -0.098, W -0.137, V -0.054, K -0.165, D -0.057, S 0.02, A -0.036
T33: R -0.088, Q -0.287, P -1.03, E -0.377, H -0.126, M -0.246, G -0.444, C -0.14, D -0.877, W -0.321, V -0.232, L -0.331, S 0.012, Y -0.184, A -0.121, I -0.276
D40: N -0.187
F38: A -0.878, I -0.852, Y -0.479, C -0.935, W -0.416, Q -0.946, P -0.941, K -1.13, M -0.722, N -0.802, E -0.997, G -0.845, D -0.764, R -0.894, V -0.787, T -0.987, H -0.94
H28: Q -0.088, I -0.508, T -0.065, L -0.087, G 0.034, S -0.042, F -0.619, E -0.159, N -0.006, C -0.098, A 0.024, D -0.144, W -0.871, P -0.001, M -0.118, Y -0.401, R -0.183
A26: S 0.106, F 0.101, G -0.068, D -0.165, Y -0.062, K 0.158, L -0.041, Q -0.322, N -0.079, T 0.109, M -0.065, R 0.049, H -0.031, I -0.16, P -0.897, C -0.063, W -0.195, E 0.211, V -0.128
G31: A 0.015, Y -0.269, R -0.033, K -0.148, H -0.099, T 0.02, V -0.45, W -0.658, C -0.12, S -0.082, N -0.057, E -0.092, Q -0.043, P -0.48, D -0.198, F -0.558, L -0.267, M -0.043
V35: P -0.973, E -0.227, W -0.087, L -0.011, D -0.426, T 0.104, I -0.16, M -0.079, K 0.104, H -0.403, C -0.162, N -0.211, G -0.384, S -0.032, R 0.129, A -0.277, Y -0.092, F -0.186, Q 0.058
A34: G -0.413, V -0.078, D -0.931, P -1.04, E -0.976, M -0.358, T -0.948, W -0.882, L -0.404, S -0.73, N -0.781, I -0.76, C -0.072, Y -0.897, Q -0.575, F -0.919, R -0.85, K -0.646, H -0.861

From the Human Domainome abundance scans (Beltran et al. 2025)
